Patent US20240317834A1, “COMPOSITIONS AND METHODS FOR NEUROLOGICAL DISEASES” (CODA BIOTHERAPEUTICS, INC., priority 2020, published 2024)
Substitutions are numbered along the chain they refer to. Numbers in names are those of the source.

Tested on: Lenti-X 293T cells
Experiment: YFP fluorescence quenching anion reporter plate reader assay of engineered receptors stimulated with acetylcholine or a non-native ligand
Type: cell-based
Conditions: for percent quench of YFP fluorescence, 30 nM TC-6683: TC-6683 30 nM; for percent quench of YFP fluorescence, 300 nM TC-6683: TC-6683 300 nM; for percent quench of YFP fluorescence, 3 uM TC-6683: TC-6683 3 uM; for percent quench of YFP fluorescence, 30 uM TC-6683: TC-6683 30 uM; for percent quench of YFP fluorescence, 100 uM TC-6683: TC-6683 100 uM; for percent quench of YFP fluorescence, 10 uM ach: acetylcholine 10 uM; for percent quench of YFP fluorescence, 100 uM ach: acetylcholine 100 uM; for percent quench of YFP fluorescence, 1 mM ach: acetylcholine 1 mM; for percent quench of YFP fluorescence, 3 mM ach: acetylcholine 3 mM
Procedure, shortened: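 YFP quench was followed for about 1 min 43 s after ligand delivered in iodide-based ECS, pH 7.2. Values are end-of-read fluorescence (last 10 s) divided by the pre-ligand baseline (15 s). Cells were LX293T, transfected with receptor DNA a day before the assay.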

B1: CODA807: engineered chimeric LGIC receptor, Y115D, L131E in SEQ ID NO: 33 (protein)
chain: MRCSPGGVWLALAASLLHVSLQGEFQRKLYKELVKNYNPLERPVANDSQPLTVYFSLSLLQIMDVDEKNQVLTTNIWLQMSWTDHYLQWNVSEYPGVKTVRFPDGQIWKPDILLDNSADERFDATFHTNVEVNSSGHCQYLPPGIFKSSCPMDLKNFPMDVQTCKLKFGSWSYGGWSLDLQMQEADISGYIPNGEWDLVGIPGKRSERFYECCKEPYPDVTFTVTMRRRMGYYLIQMYIPSLLIVILSWISFWINMDAAPARVGLGITTVLTMTTQSSGSRASLPKVSYVKAIDIWMAVCLLFVFSALLEYAAVNFVSRQHKELLRFRRKRRHHKSPMLNLFQEDEAGEGRFNFSAYGMGPACLQAKDGISVKGANNSNTTNPPPAPSKSPEEMRKLFIQRAKKIDKISRIGFPMAFLIFNMFYWIIYKIVRREDVHNQ
modifications: synthetic sequence of chimeric LGIC
YFP fluorescence quenching using CNL001 (1 nM CNL001, first column): 0.885%
YFP fluorescence quenching using CNL001 (1 nM CNL001, second column): −1.707%
YFP fluorescence quenching using TC-5619/Bradanicline (1 nM brd): −1.52%
YFP fluorescence quenching using TC-5619/Bradanicline (3 nM brd): −5.35%
YFP fluorescence quenching using CNL001 (10 nM CNL001, first column): −0.567%
YFP fluorescence quenching using CNL001 (10 nM CNL001, second column): 0.043%
YFP fluorescence quenching using TC-5619/Bradanicline (10 nM brd): −3.49%
YFP fluorescence quenching using TC-5619/Bradanicline (30 nM brd): −2.16%
YFP fluorescence quenching using Facinicline (30 nM fac): 45.76
YFP fluorescence quenching using CNL001 (50 nM CNL001, first column): 5.141%
YFP fluorescence quenching using CNL001 (50 nM CNL001, second column): 9.409%
YFP fluorescence quenching using ABT-126 (50 nM abt): −1.68%
YFP fluorescence quenching using CNL001 (100 nM CNL001, first column): 9.796%
YFP fluorescence quenching using CNL001 (100 nM CNL001, second column): 11.009%
YFP fluorescence quenching using CNL002 (100 nM CNL002): −5.71%
YFP fluorescence quenching using ABT-126 (100 nM abt): −2.25%
YFP fluorescence quenching using AZD-0328 (100 nM azd0328): 24.49%
YFP fluorescence quenching using TC-5619/Bradanicline (100 nM brd): 4.18%
YFP fluorescence quenching using Facinicline (100 nM fac): 63.92
YFP fluorescence quenching using ABT-126 (300 nM abt): −2.37%
YFP fluorescence quenching using AZD-0328 (300 nM azd0328): 45.34%
YFP fluorescence quenching using TC-5619/Bradanicline (300 nM brd): 70.2%
YFP fluorescence quenching using Facinicline (300 nM fac): 79.43
YFP fluorescence quenching using CNL001 (1 uM CNL001, first column): 27.914%
YFP fluorescence quenching using CNL001 (1 uM CNL001, second column): 29.109%
YFP fluorescence quenching using CNL002 (1 uM CNL002): 13.03%
YFP fluorescence quenching using ABT-126 (1 uM abt): 3.68%
YFP fluorescence quenching using TC-5619/Bradanicline (1 uM brd): 43.11%
YFP fluorescence quenching using TC-6987 (1 uM tc6987): 36.07
YFP fluorescence quenching using Facinicline (10 uM fac): 80.1
YFP fluorescence quenching using TC-6987 (10 uM tc6987): 31.35
YFP fluorescence quenching using CNL002 (30 uM CNL002): 25.2%
YFP fluorescence quenching using AZD-0328 (30 uM azd0328): 71.21%
YFP fluorescence quenching using Facinicline (30 uM fac): 84.91
YFP fluorescence quenching using TC-6987 (500 uM tc6987): 28.18
percent quench of YFP fluorescence, 30 nM TC-6683: −26.801%
percent quench of YFP fluorescence, 300 nM TC-6683: −25.363%
percent quench of YFP fluorescence, 3 uM TC-6683: −23.651%
percent quench of YFP fluorescence, 30 uM TC-6683: −26.235%
percent quench of YFP fluorescence, 100 uM TC-6683: −24.182%
percent quench of YFP fluorescence, 10 uM ach: 15.45%
percent quench of YFP fluorescence, 100 uM ach: 13.77%
percent quench of YFP fluorescence, 1 mM ach: 27.42%
percent quench of YFP fluorescence, 3 mM ach: 53.62%

B2: CODA965: engineered chimeric LGIC receptor, Y140C in SEQ ID NO: 33 (protein)
chain: B1 chain with D115Y, E131L, Y140C
modifications: synthetic sequence of chimeric LGIC
YFP fluorescence quenching using CNL001 (1 nM CNL001, first column): −12.765%
YFP fluorescence quenching using CNL001 (1 nM CNL001, second column): −12.608%
YFP fluorescence quenching using TC-5619/Bradanicline (3 nM brd): −18.49%
YFP fluorescence quenching using Varenicline (3 nM var, first column): −17.716
YFP fluorescence quenching using Varenicline (3 nM var, second column): −23.019
YFP fluorescence quenching using CNL001 (10 nM CNL001, first column): 68.134%
YFP fluorescence quenching using CNL001 (10 nM CNL001, second column): 71.394%
YFP fluorescence quenching using TC-5619/Bradanicline (30 nM brd): 22.66%
YFP fluorescence quenching using Facinicline (30 nM fac): −12.29
YFP fluorescence quenching using Varenicline (30 nM var, first column): −14.993
YFP fluorescence quenching using Varenicline (30 nM var, second column): −12.182
YFP fluorescence quenching using CNL001 (50 nM CNL001, first column): 80.298%
YFP fluorescence quenching using CNL001 (50 nM CNL001, second column): 82.159%
YFP fluorescence quenching using ABT-126 (50 nM abt): −10.75%
YFP fluorescence quenching using CNL001 (100 nM CNL001, first column): 82.404%
YFP fluorescence quenching using CNL001 (100 nM CNL001, second column): 82.14%
YFP fluorescence quenching using CNL002 (100 nM CNL002): 43.24%
YFP fluorescence quenching using ABT-126 (100 nM abt): −4.11%
YFP fluorescence quenching using AZD-0328 (100 nM azd0328): −16.69%
YFP fluorescence quenching using ABT-126 (300 nM abt): 18.93%
YFP fluorescence quenching using AZD-0328 (300 nM azd0328): 1.3%
YFP fluorescence quenching using TC-5619/Bradanicline (300 nM brd): 38.02%
YFP fluorescence quenching using Facinicline (300 nM fac): 20.11
YFP fluorescence quenching using Varenicline (300 nM var, first column): −11.731
YFP fluorescence quenching using Varenicline (300 nM var, second column): −10.13
YFP fluorescence quenching using Varenicline (500 nM var, first column): −12.518
YFP fluorescence quenching using Varenicline (500 nM var, second column): −15.043
YFP fluorescence quenching using CNL001 (1 uM CNL001, first column): 82.34%
YFP fluorescence quenching using CNL001 (1 uM CNL001, second column): 80.649%
YFP fluorescence quenching using CNL002 (1 uM CNL002): 42.72%
YFP fluorescence quenching using ABT-126 (1 uM abt): 52.64%
YFP fluorescence quenching using TC-6987 (1 uM tc6987): 2.73
YFP fluorescence quenching using Varenicline (1 uM var, first column): −13.385
YFP fluorescence quenching using Varenicline (1 uM var, second column): −17.022
YFP fluorescence quenching using TC-6987 (10 uM tc6987): 30.37
YFP fluorescence quenching using CNL002 (30 uM CNL002): 51.43%
YFP fluorescence quenching using AZD-0328 (30 uM azd0328): 21.78%
YFP fluorescence quenching using Facinicline (30 uM fac): 37.62
YFP fluorescence quenching using TC-6987 (500 uM tc6987): 33.07
percent quench of YFP fluorescence, 30 nM TC-6683: −8.21%
percent quench of YFP fluorescence, 300 nM TC-6683: −16.37%
percent quench of YFP fluorescence, 3 uM TC-6683: −19.48%
percent quench of YFP fluorescence, 30 uM TC-6683: −24.32%
percent quench of YFP fluorescence, 100 uM TC-6683: −24.99%
percent quench of YFP fluorescence, 10 uM ach: −21.71%
percent quench of YFP fluorescence, 100 uM ach: 3.49%
percent quench of YFP fluorescence, 1 mM ach: 63.34%
percent quench of YFP fluorescence, 3 mM ach: 51.92%

B3: CODA952: engineered chimeric LGIC receptor, Y140I in SEQ ID NO: 33 (protein)
chain: B1 chain with D115Y, E131L, Y140I
modifications: synthetic sequence of chimeric LGIC
YFP fluorescence quenching using CNL001 (1 nM CNL001, first column): 0.368%
YFP fluorescence quenching using CNL001 (1 nM CNL001, second column): −1.976%
YFP fluorescence quenching using TC-5619/Bradanicline (3 nM brd): −2.45%
YFP fluorescence quenching using Varenicline (3 nM var, first column): −22.522
YFP fluorescence quenching using Varenicline (3 nM var, second column): −18.173
YFP fluorescence quenching using CNL001 (10 nM CNL001, first column): −3.923%
YFP fluorescence quenching using CNL001 (10 nM CNL001, second column): 4.348%
YFP fluorescence quenching using TC-5619/Bradanicline (30 nM brd): 66.97%
YFP fluorescence quenching using Facinicline (30 nM fac): −8.83
YFP fluorescence quenching using Varenicline (30 nM var, first column): −15.306
YFP fluorescence quenching using Varenicline (30 nM var, second column): −12.832
YFP fluorescence quenching using CNL001 (50 nM CNL001, first column): 74.107%
YFP fluorescence quenching using CNL001 (50 nM CNL001, second column): 75.866%
YFP fluorescence quenching using ABT-126 (50 nM abt): −12.34%
YFP fluorescence quenching using CNL001 (100 nM CNL001, first column): 80.323%
YFP fluorescence quenching using CNL001 (100 nM CNL001, second column): 81.996%
YFP fluorescence quenching using CNL002 (100 nM CNL002): 32.58%
YFP fluorescence quenching using ABT-126 (100 nM abt): −11.57%
YFP fluorescence quenching using AZD-0328 (100 nM azd0328): −12.96%
YFP fluorescence quenching using ABT-126 (300 nM abt): −5.21%
YFP fluorescence quenching using AZD-0328 (300 nM azd0328): −13.21%
YFP fluorescence quenching using TC-5619/Bradanicline (300 nM brd): 78.48%
YFP fluorescence quenching using Facinicline (300 nM fac): 51.6
YFP fluorescence quenching using Varenicline (300 nM var, first column): −14.671
YFP fluorescence quenching using Varenicline (300 nM var, second column): −17.016
YFP fluorescence quenching using Varenicline (500 nM var, first column): −16.713
YFP fluorescence quenching using Varenicline (500 nM var, second column): −18.893
YFP fluorescence quenching using CNL001 (1 uM CNL001, first column): 83.489%
YFP fluorescence quenching using CNL001 (1 uM CNL001, second column): 82.208%
YFP fluorescence quenching using CNL002 (1 uM CNL002): 69.08%
YFP fluorescence quenching using ABT-126 (1 uM abt): 3.93%
YFP fluorescence quenching using TC-6987 (1 uM tc6987): 6.03
YFP fluorescence quenching using Varenicline (1 uM var, first column): −15.847
YFP fluorescence quenching using Varenicline (1 uM var, second column): −16.236
YFP fluorescence quenching using TC-6987 (10 uM tc6987): 2.25
YFP fluorescence quenching using CNL002 (30 uM CNL002): 73.28%
YFP fluorescence quenching using AZD-0328 (30 uM azd0328): 68.5%
YFP fluorescence quenching using Facinicline (30 uM fac): 71.01
YFP fluorescence quenching using TC-6987 (500 uM tc6987): −0.24
percent quench of YFP fluorescence, 30 nM TC-6683: −27.7%
percent quench of YFP fluorescence, 300 nM TC-6683: −26.87%
percent quench of YFP fluorescence, 3 uM TC-6683: −31.2%
percent quench of YFP fluorescence, 30 uM TC-6683: −33.12%
percent quench of YFP fluorescence, 100 uM TC-6683: −24.67%
percent quench of YFP fluorescence, 10 uM ach: −1.97%
percent quench of YFP fluorescence, 100 uM ach: 2.79%
percent quench of YFP fluorescence, 1 mM ach: 58.81%
percent quench of YFP fluorescence, 3 mM ach: 66.9%
